In patent US20060084162A1:

Biological target: Y289L_C342T mutant of the catalytic domain (residues 130-402) of bovine β(1,4)-galactosyltransferase I (bovine) (UniProt P08037)
Experiment: cell-based or functional assay

UniProt P08037, sequence (P08037 other isoform, or with tags, fused parts or gaps Y289L C342T Y289L C342T): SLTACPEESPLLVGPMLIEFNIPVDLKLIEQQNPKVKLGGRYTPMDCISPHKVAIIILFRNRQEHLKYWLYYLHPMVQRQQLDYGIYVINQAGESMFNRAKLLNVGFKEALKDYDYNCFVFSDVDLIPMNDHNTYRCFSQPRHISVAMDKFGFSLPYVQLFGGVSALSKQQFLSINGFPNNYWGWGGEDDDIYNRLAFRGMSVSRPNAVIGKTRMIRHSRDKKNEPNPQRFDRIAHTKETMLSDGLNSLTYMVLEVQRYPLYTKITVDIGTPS

“bovine α-Lactalbumin (Sigma) (from UniProt P00711 20-142)” was tested, and the GalNAc-T activity of Y289L mutant with acceptor Glc (100 mM), 500 µM UDP-GalNAc, +LA 55 µM (the value without LA in the same row is 2.6) was 34.8 pmol/min/ng, the GalNAc-T activity of Y289L mutant with acceptor GlcNAc (100 mM), 500 µM UDP-GalNAc, +LA 55 µM (the value without LA in the same row is 31.3) was 3.3 pmol/min/ng and the GalNAc-T activity of Y289L mutant with acceptor Glucosamine (100 mM), 500 µM UDP-GalNAc, +LA 55 µM (the value without LA in the same row is 1.8) was 5 pmol/min/ng.
